Values of other authors as cited in publication PMC6136702.

Molecular target: EGFR (Homo sapiens) (UniProt P00533)

Question: Which Kd does the source give for EGF (from UniProt P01133) here?
Answer: The Kd was 0.2 nM.
